Data from patent US20210388087A1 (Chugai, published 2021).
Where a chain is given by its changes, count along the chain named. Names and notes keep the numbering of the source. One block for each binder: values may come before it.

Target: T1, Human CD3eg linker (human)
T1 construct: single-chain construct; also called recombinant human CD3
T1 chain: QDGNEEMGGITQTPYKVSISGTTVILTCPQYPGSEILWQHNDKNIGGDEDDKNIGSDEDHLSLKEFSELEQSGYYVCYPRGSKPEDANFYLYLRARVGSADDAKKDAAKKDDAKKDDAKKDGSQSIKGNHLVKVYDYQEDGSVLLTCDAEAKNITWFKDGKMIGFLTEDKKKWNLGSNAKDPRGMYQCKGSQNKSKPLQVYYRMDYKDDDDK
Assay: SPR, vs unmutated H183/L072

fold change of affinity: 0.3 fold
B1: dBBDu183H H96R/dBBDu072L (antibody, name in Kabat numbering, V domains shown)
VH: QVQLVESGGGLVQPGRSLRLSCAASGFTFSNAWMHWVRQAPGKGLEWVAQIKDKGNAYAAYYAPSVKGRFTISRDDSKNSIYLQMNSLKTEDTAVYYCHYVRYASASTVLPAFGVDAWGQGTTVTVSS
VL: DIVMTQSPLSLPVTPGEPASISCQASQELVHMNRNTYLHWYQQKPGQAPRLLIYKVSNRFPGVPDRFSGSGSGTDFTLKISRVEAEDVGVYYCAQGTSVPFTFGQGTKLEIK

fold change of affinity: 1.3 fold
B5: dBBDu183H P61S/dBBDu072L (antibody, name in Kabat numbering, V domains shown)
VH: B1 VH with P64S, R102H
VL: B1 VL

fold change of affinity: 0.7 fold
B7: dBBDu183H L100dE/dBBDu072L (antibody, name in Kabat numbering, V domains shown)
VH: B1 VH with R102H, L110E
VL: B1 VL

fold change of affinity: 0 fold
B15: dBBDu183H H96V/dBBDu072L (antibody, name in Kabat numbering, V domains shown)
VH: B1 VH with R102V
VL: B1 VL

fold change of affinity: 0 fold
B16: dBBDu183H H96T/dBBDu072L (antibody, name in Kabat numbering, V domains shown)
VH: B1 VH with R102T
VL: B1 VL

fold change of affinity: 0 fold
B19: dBBDu183H H96W/dBBDu072L (antibody, name in Kabat numbering, V domains shown)
VH: B1 VH with R102W
VL: B1 VL

fold change of affinity: 1 fold
B23: dBBDu183H K64G/dBBDu072L (antibody, name in Kabat numbering, V domains shown)
VH: B1 VH with K67G, R102H
VL: B1 VL

fold change of affinity: 1.1 fold
B25: dBBDu183H L100dQ/dBBDu072L (antibody, name in Kabat numbering, V domains shown)
VH: B1 VH with R102H, L110Q
VL: B1 VL

fold change of affinity: 1 fold
B30: dBBDu183H K64H/dBBDu072L (antibody, name in Kabat numbering, V domains shown)
VH: B1 VH with K67H, R102H
VL: B1 VL

fold change of affinity: 1.2 fold
B31: dBBDu183H L100dN/dBBDu072L (antibody, name in Kabat numbering, V domains shown)
VH: B1 VH with R102H, L110N
VL: B1 VL

fold change of affinity: 1 fold
B32: dBBDu183H L100dV/dBBDu072L (antibody, name in Kabat numbering, V domains shown)
VH: B1 VH with R102H, L110V
VL: B1 VL

fold change of affinity: 1.8 fold
B33: dBBDu183H L100dR/dBBDu072L (antibody, name in Kabat numbering, V domains shown)
VH: B1 VH with R102H, L110R
VL: B1 VL

fold change of affinity: 1 fold
B36: dBBDu183H K64W/dBBDu072L (antibody, name in Kabat numbering, V domains shown)
VH: B1 VH with K67W, R102H
VL: B1 VL

fold change of affinity: 1 fold
B42: dBBDu183H K64E/dBBDu072L (antibody, name in Kabat numbering, V domains shown)
VH: B1 VH with K67E, R102H
VL: B1 VL

fold change of affinity: 1.4 fold
B43: dBBDu183H L100dY/dBBDu072L (antibody, name in Kabat numbering, V domains shown)
VH: B1 VH with R102H, L110Y
VL: B1 VL

Second part, the binder before the results:

B2: dBBDu183H K64N/dBBDu072L (antibody, name in Kabat numbering, V domains shown)
VH: B1 VH with K67N, R102H
VL: B1 VL
fold change of affinity: 1 fold

B3: dBBDu183H L100dS/dBBDu072L (antibody, name in Kabat numbering, V domains shown)
VH: B1 VH with R102H, L110S
VL: B1 VL
fold change of affinity: 1.2 fold

B4: dBBDu183H H96S/dBBDu072L (antibody, name in Kabat numbering, V domains shown)
VH: B1 VH with R102S
VL: B1 VL
fold change of affinity: 0.2 fold

B6: dBBDu183H P61D/dBBDu072L (antibody, name in Kabat numbering, V domains shown)
VH: B1 VH with P64D, R102H
VL: B1 VL
fold change of affinity: 1.9 fold

B8: dBBDu183H L100dD/dBBDu072L (antibody, name in Kabat numbering, V domains shown)
VH: B1 VH with R102H, L110D
VL: B1 VL
fold change of affinity: 1 fold

B9: dBBDu183H P61N/dBBDu072L (antibody, name in Kabat numbering, V domains shown)
VH: B1 VH with P64N, R102H
VL: B1 VL
fold change of affinity: 1.5 fold

B10: dBBDu183H K64F/dBBDu072L (antibody, name in Kabat numbering, V domains shown)
VH: B1 VH with K67F, R102H
VL: B1 VL
fold change of affinity: 1.3 fold

B11: dBBDu183H L100dK/dBBDu072L (antibody, name in Kabat numbering, V domains shown)
VH: B1 VH with R102H, L110K
VL: B1 VL
fold change of affinity: 1.8 fold

B12: dBBDu183H K64Q/dBBDu072L (antibody, name in Kabat numbering, V domains shown)
VH: B1 VH with K67Q, R102H
VL: B1 VL
fold change of affinity: 1 fold

B13: dBBDu183H K64T/dBBDu072L (antibody, name in Kabat numbering, V domains shown)
VH: B1 VH with K67T, R102H
VL: B1 VL
fold change of affinity: 1.1 fold

B14: dBBDu183H P61K/dBBDu072L (antibody, name in Kabat numbering, V domains shown)
VH: B1 VH with P64K, R102H
VL: B1 VL
fold change of affinity: 1.7 fold

B17: dBBDu183H K64S/dBBDu072L (antibody, name in Kabat numbering, V domains shown)
VH: B1 VH with K67S, R102H
VL: B1 VL
fold change of affinity: 1 fold

B18: dBBDu183H P61R/dBBDu072L (antibody, name in Kabat numbering, V domains shown)
VH: B1 VH with P64R, R102H
VL: B1 VL
fold change of affinity: 1.6 fold

B20: dBBDu183H P61H/dBBDu072L (antibody, name in Kabat numbering, V domains shown)
VH: B1 VH with P64H, R102H
VL: B1 VL
fold change of affinity: 1.8 fold

B21: dBBDu183H K64Y/dBBDu072L (antibody, name in Kabat numbering, V domains shown)
VH: B1 VH with K67Y, R102H
VL: B1 VL
fold change of affinity: 1 fold

B22: dBBDu183H K64R/dBBDu072L (antibody, name in Kabat numbering, V domains shown)
VH: B1 VH with K67R, R102H
VL: B1 VL
fold change of affinity: 0.9 fold

B24: dBBDu183H L100dW/dBBDu072L (antibody, name in Kabat numbering, V domains shown)
VH: B1 VH with R102H, L110W
VL: B1 VL
fold change of affinity: 1.7 fold

B26: dBBDu183H P61T/dBBDu072L (antibody, name in Kabat numbering, V domains shown)
VH: B1 VH with P64T, R102H
VL: B1 VL
fold change of affinity: 1 fold

B27: dBBDu183H P61G/dBBDu072L (antibody, name in Kabat numbering, V domains shown)
VH: B1 VH with P64G, R102H
VL: B1 VL
fold change of affinity: 1.5 fold

B28: dBBDu183H K64D/dBBDu072L (antibody, name in Kabat numbering, V domains shown)
VH: B1 VH with K67D, R102H
VL: B1 VL
fold change of affinity: 1 fold

B29: dBBDu183H P61F/dBBDu072L (antibody, name in Kabat numbering, V domains shown)
VH: B1 VH with P64F, R102H
VL: B1 VL
fold change of affinity: 1.8 fold

B34: dBBDu183H L100dH/dBBDu072L (antibody, name in Kabat numbering, V domains shown)
VH: B1 VH with R102H, L110H
VL: B1 VL
fold change of affinity: 1.3 fold

B35: dBBDu183H L100dT/dBBDu072L (antibody, name in Kabat numbering, V domains shown)
VH: B1 VH with R102H, L110T
VL: B1 VL
fold change of affinity: 1.3 fold

B37: dBBDu183H P61Q/dBBDu072L (antibody, name in Kabat numbering, V domains shown)
VH: B1 VH with P64Q, R102H
VL: B1 VL
fold change of affinity: 1.8 fold

B38: dBBDu183H H96Y/dBBDu072L (antibody, name in Kabat numbering, V domains shown)
VH: B1 VH with R102Y
VL: B1 VL
fold change of affinity: 0 fold

B39: dBBDu183H K64V/dBBDu072L (antibody, name in Kabat numbering, V domains shown)
VH: B1 VH with K67V, R102H
VL: B1 VL
fold change of affinity: 1.1 fold

B40: dBBDu183H P61W/dBBDu072L (antibody, name in Kabat numbering, V domains shown)
VH: B1 VH with P64W, R102H
VL: B1 VL
fold change of affinity: 1.8 fold

B41: dBBDu183H L100dG/dBBDu072L (antibody, name in Kabat numbering, V domains shown)
VH: B1 VH with R102H, L110G
VL: B1 VL
fold change of affinity: 2 fold

B44: dBBDu183H L100dF/dBBDu072L (antibody, name in Kabat numbering, V domains shown)
VH: B1 VH with R102H, L110F
VL: B1 VL
fold change of affinity: 1.3 fold

B45: dBBDu183H P61E/dBBDu072L (antibody, name in Kabat numbering, V domains shown)
VH: B1 VH with P64E, R102H
VL: B1 VL
fold change of affinity: 1.8 fold
